B1: -024: human monoclonal IgG1 anti-CD38 antibody, VL region SEQ ID No:22 and VH region SEQ ID No:27 (antibody, listed as Homo sapiens, V domains shown)
VH: EVQLVQSGAEVKKPGESLKISCKGSGYSFSNYWIGWVRQMPGKGLEWMGIIYPHDSDARYSPSFQGQVTFSADKSISTAYLQWSSLKASDTAMYYCARHVGWGSRYWYFDLWGRGTLVTVSS
VL: EIVLTQSPATLSLSPGERATLSCRASQSVSSYLAWYQQKPGQAPGLLIYDASNRASGIPARFSGSGSGTDFTLTISSLEPEDFAVYYCQQRSNWPLTFGGGTKVEIK

Key:
[1] = test system: Daudi-luc tumor cells; experiment: In vivo SCID-luciferase experiments; set-up: species or system SCID mice
Source text: In this model tumor cells are transfected with firefly luciferase. Upon administration of luciferin (Molecular Probes, Leiden, The Netherlands) to the mice the labeled cells can be detected in vivo by bioluminescent imaging using a highly sensitive CCD camera, cf. Wetterwald et al., American Journal of Pathology 160(3), 1143-1153 (2002).
Daudi cells were transfected with gWIZ luciferase from Gene Therapy Systems (San Diego, CA) and cultured in RPMI with 10% FCS, Pen/Strep, Sodium Pyruvate and 1 μg/ml puromycin (Sigma). Cells were analysed for luciferase expression (expressed in RLU/1×10^5 cells) in a luminometer and for CD38 expression by FACS. 2.5×10^6 luciferase-transfected Daudi cells/mouse were injected i.v. into SCID mice. Mice were treated with -003, -005, isotype control antibody (HuMab-KLH) or rituximab (anti-CD20 antibody). Antibodies were injected intraperitoneally. Four treatment settings were used (see Table 4). In the preventive setting, antibody (100 μg/mouse) and cells were administered simultaneously. In therapeutic setting I, antibody (300 μg/mouse) was administered 7 days after administration of cells. In therapeutic setting II, antibody (10 μg/mouse) was administered 14 days after administration of cells. In therapeutic setting III, antibody (100 μg/mouse) was administered 7 days after administration of cells. For imaging, mice were anesthetized by i.p. injection of a mixture of ketamine/xylazine/atropine. Synthetic D-Luciferin (sodium salt, Molecular Probes) was given i.p. at a dose of 25 mg/ml. Mice were then placed in a light tight box and after 3 min, imaging was started using a VersArray 1300B liquid nitrogen cooled CCD detector (Roper Scientific). Photons emitted from the luciferase were counted over an exposure period of 5 min. Under illumination black and white images were made for reference. MetaVue software (Universal Imaging Corp) was used for data collection and image analysis. Statistical significance of differences between groups was established using one-way analysis of variance with a Newman-Keuls post test using GraphPad PRISM version 3.02 (Graphpad Software Inc).

[2] = test system: plasma cells in implanted synovial tissue; experiment: RA-SCID mouse model, synovial tissue xenografts; assay type: in vivo, SCID-mice; conditions: 12 mg/kg i.v. day 8, day 14
Source text: SCID-mice, strain C.B.-17/lcrCrl-SCID-bg, male/female, 4-12 weeks, purchased from Charles River Laboratories Nederland (Maastricht, the Netherlands) were kept in IVC cages under standard conditions of temperature and light, and were fed laboratory chow and water ad libitum. Prior to implantation, mice (three mice in each experimental group, day 0) were anesthetized by intraperitoneal injection of ketamine (NIMATEK, EuroVet) and xylazine (Rompun, Bayer) at ratio 1:1. A small incision of the skin was made using surgical scissors. […] On day 1 of the experiment, remaining synovial tissue was analyzed in order to check for B cells in the inflamed synovial transplants. -005 (12 mg/kg) or control antibody (anti-KLH, 30 mg/kg) was injected (i.v.), in a volume of 200 μl on day 8 of the experiment. […]
Scoring of stained synovial tissue xenografts was performed in a blinded fashion by two trained persons. […] The staining intensity in the other sections was then scored on a scale of 0 to 8, relative to the reference section.
Scoring of staining intensity was analyzed by Kruskal-Wallis one-way ANOVA followed by Dunn's multiple comparison test using Graph Pad Prism version 4.01 (Graph Pad software, Inc., San Diego, CA, USA).

[3] = target: T1, HA-tagged CD38 (Homo sapiens, UniProt P28907); experiment: Surface plasmon resonance (Biacore 3000); assay type: binding; conditions: 25° C., mean of 3 experiments±SD
T1 construct: The extracellular domain of human CD38 was amplified from plasmid pCIpuroCD38; made in house
Procedure: Binding of -003 and -005 to CD38 was tested using surface plasmon resonance. Briefly, purified antibodies were immobilized on a CM-5 sensor chip (Biacore, Uppsala, Sweden) via anime coupling. HA-tagged CD38 (see Example 3) was flowed over, and the binding of antigen to mAb was detected by a change in refractive index at the surface of the chip using a Biacore 3000 (Biacore).

| Molecule | inhibition of growth of tumor cells ([1]; preventive setting, 100 μg/mouse, day 0, i.p.) | inhibition of growth of tumor cells ([1]; therapeutic setting I, 300 μg/mouse, day 7, i.p.) | numbers of anti-CD38-positive plasma cells in xenografts [2] | numbers of plasma cells (anti-CD138 staining) in xenografts [2] | KA [3] [M⁻¹] | Kd [3] [nM] | ka [3] [M⁻¹ s⁻¹] | kd [3] [s⁻¹] | inhibition of Daudi-luc tumor cell growth ([1]; therapeutic setting III, 100 μg/mouse, day 7, i.p.) |
| --- | --- | --- | --- | --- | --- | --- | --- | --- | --- |
| -005: human monoclonal IgG1 anti-CD38 antibody, VL region SEQ ID No:12 and VH region SEQ ID No:17 | inhibit growth of tumor cells | inhibit growth of tumor cells | reduced | reduced numbers of plasma cells | 1.7e+08 ± 3.68e+07 | 6.06 | 88800 ± 19500 | 0.000522 ± 1.16e-05 |  |
| B1 |  |  |  |  |  |  |  |  | clear inhibition |
